From article PMC3325613

Assays:
[1] = biological target: HIV-1 capsid protein C-terminal domain, CTD (144–231) (HIV-1) (UniProt P12493); assay: ITC
[2] = biological target: HIV-1 capsid protein C-terminal domain, CTD (150–231) (HIV-1) (UniProt P12493); assay: ITC

Substance | Kd [1] [µM] | Kd [2] [µM]
HIV-1 capsid protein C-terminal domain, CTD (144–231) (from UniProt P12493 276-363) (domain or fragment) | 2.5 | –
HIV-1 capsid protein C-terminal domain, CTD (150–231) (from UniProt P12493 282-363) (domain or fragment) | – | 11
